Assay results reported in PMC8041770 (2021).

Molecular target: recombinant human LIF, histidine-tagged (hLIF-His) (human, UniProt P15018 23-202)
Assay: FACS

recombinant human LIF, histidine-tagged (hLIF-His), sequence (P15018 23-202): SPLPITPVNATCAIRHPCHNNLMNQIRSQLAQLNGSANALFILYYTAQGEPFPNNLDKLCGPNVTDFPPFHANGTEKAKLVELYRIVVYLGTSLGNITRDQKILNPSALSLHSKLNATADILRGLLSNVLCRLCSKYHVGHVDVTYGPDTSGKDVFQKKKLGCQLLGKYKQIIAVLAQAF

Kd: 0.014 nM
B1: yeast-displayed eLIFR CBM I–Ig-like–CBM II domains (designed binder)
chain: QKKGAPHDLKCVTNNLQVWNCSWKAPSGTGRGTDYEVCIENRSRSCYQLEKTSIKIPALSHGDYEITINSLHDFGSSTSKFTLNEQNVSLIPDTPEILNLSADFSTSTLYLKWNDRGSVFPHRSNVIWEIKVLRKESMELVKLVTHNTTLNGKDTLHHWSWASDMPLECAIHFVEIRCYIDNLHFSGLEEWSDWSPVKNISWIPDSQTKVFPQDKVVPVGSDITFCCVSQEKVLSALIGRTNCPLIHLDGENVAIKVRNVSASASSGTNVVFITEDDIFGTVIFAGYPPDTPQQLNCETHDLKEIICSWNPGRVTALVGPRATSYTLVESFSGKYVRLKRAEAPTNESYQLLFQMLPNQEIYNFTLNAHNPLGRSQSTILVNITEKVYPHTPTSFKVKDINSTAVKLSWHLPGNFAKINFLCEIEIKKSNSVQEQRNVTIKGVENSSYLVALDKLNPYTLYTFRIRCSTETFWKWSKWSNKKQHLTTEAS
